From publication PMC11347169

Legend:
[1] = molecular target: Simian virus 40 large T antigen (L-Tag) (simian virus 40) (UniProt P03070)
[2] = molecular target: Human wild-type DNA polymerase δ (WT Pol δ) (human) (UniProt P28340)
[3] = molecular target: Human wild-type DNA polymerase δ (WT Pol δ) (human) (UniProt P28340); test: MST; His6-tagged Pol δ labelled with RED-Tris-NTA, 20 nM final; L-Tag titrated in 16 concentrations beginning with 500 nM; PBS-T buffer; incubated 40 min at 37°C; Monolith NT.115, premium-coated capillaries

## Human fork protection complex (FPC): Claspin, TIMELESS, Tipin (from UniProt Q9HAW4 1-1339; Q9UNS1 1-1208; Q9BVW5 1-301)
[1]
  saturation concentration of FPC for stimulating L-Tag unwinding in the bulk assay (25 nM L-Tag, 0.5 nM forked DNA): < 8 nM

## Human mini-chromosome maintenance protein 10 (Mcm10) (from UniProt Q7L590 1-875) (natural protein)
[1]
  saturation concentration of Mcm10 for stimulating L-Tag unwinding in the bulk assay (25 nM L-Tag, 0.5 nM forked DNA): < 8 nM

## Simian virus 40 large T antigen (L-Tag) (from UniProt P03070 1-708) (enzyme)
[2]
  lifetime of Pol δ–PCNA on DNA in single-molecule flow-stretching assays: primer extension alone against leading-strand synthesis with L-Tag: 3 min
[3]
  Kd: 6.7 nM
